From IntAct's records for PubMed 26694203 come the findings set out here.

B1: Mesoderm posterior protein 1 (Homo sapiens), Q9BRJ9 (parent)
chain: MAQPLCPPLSESWMLSAAWGPTRRPPPSDKDCGRSLVSSPDSWGSTPADSPVASPARPGTLRDPRAPSVGRRGARSSRLGSGQRQSASEREKLRMRTLARALHELRRFLPPSVAPAGQSLTKIETLRLAIRYIGHLSAVLGLSEESLQRRCRQRGDAGSPRGCPLCPDDCPAQMQTRTQAEGQGQGRGLGLVSAVRAGASWGSPPACPGARAAPEPRDPPALFAEAACPEGQAMEPSPPSPLLPGDVLALLETWMPLSPLEWLPEEPK

The variants in the assay derive from B1. The following applies: with tfe2_human TCF3, P15923.
Chain of tfe2_human TCF3, P15923 (P15923 whole entry): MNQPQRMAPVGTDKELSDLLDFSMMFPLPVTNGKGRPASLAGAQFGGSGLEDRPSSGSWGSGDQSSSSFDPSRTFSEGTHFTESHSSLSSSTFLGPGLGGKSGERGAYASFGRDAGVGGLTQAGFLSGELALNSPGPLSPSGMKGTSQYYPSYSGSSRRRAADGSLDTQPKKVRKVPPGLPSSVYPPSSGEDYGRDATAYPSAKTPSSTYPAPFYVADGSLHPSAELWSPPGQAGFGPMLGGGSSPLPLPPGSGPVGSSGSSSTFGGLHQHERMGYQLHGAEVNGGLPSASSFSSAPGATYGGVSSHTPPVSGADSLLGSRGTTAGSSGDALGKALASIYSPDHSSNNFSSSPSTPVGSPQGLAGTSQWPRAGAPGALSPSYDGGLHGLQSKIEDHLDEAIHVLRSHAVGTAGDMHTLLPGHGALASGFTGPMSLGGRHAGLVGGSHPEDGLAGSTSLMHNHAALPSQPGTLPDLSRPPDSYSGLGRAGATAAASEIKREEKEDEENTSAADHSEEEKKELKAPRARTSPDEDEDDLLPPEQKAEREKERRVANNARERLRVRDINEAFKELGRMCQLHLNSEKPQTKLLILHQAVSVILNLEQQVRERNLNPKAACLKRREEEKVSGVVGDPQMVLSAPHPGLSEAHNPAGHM
On to L120P, for which the “effect of a mutation on the interaction” value is on record as “decreasing interaction strength”. The result for E104K reads “decreasing interaction strength”. For D168G, the “effect of a mutation on the interaction” value is given as “decreasing interaction strength”. The value for G70D was “with no effect”. The value for K268N was “with no effect”.
